The values below come from PMC12087824.

By pKd is commonly meant the Kd on a negative log10 scale, so that one unit is a factor of ten. The low end stands for a high Kd, the high end for a low Kd.

The target in assay [1] is human IL-2 receptor chain beta (IL-2Rβ, CD122) (human) (UniProt P14784).
Assay [2] shares this target. Nature of the assay: BLI; human IL-2Rβ immobilised; Neo-2/15 WT at 20–2.5 nM.

pKd: −log10 of the molar value.

human IL-2 receptor chain beta (IL-2Rβ, CD122) (human), sequence (P14784 27-551): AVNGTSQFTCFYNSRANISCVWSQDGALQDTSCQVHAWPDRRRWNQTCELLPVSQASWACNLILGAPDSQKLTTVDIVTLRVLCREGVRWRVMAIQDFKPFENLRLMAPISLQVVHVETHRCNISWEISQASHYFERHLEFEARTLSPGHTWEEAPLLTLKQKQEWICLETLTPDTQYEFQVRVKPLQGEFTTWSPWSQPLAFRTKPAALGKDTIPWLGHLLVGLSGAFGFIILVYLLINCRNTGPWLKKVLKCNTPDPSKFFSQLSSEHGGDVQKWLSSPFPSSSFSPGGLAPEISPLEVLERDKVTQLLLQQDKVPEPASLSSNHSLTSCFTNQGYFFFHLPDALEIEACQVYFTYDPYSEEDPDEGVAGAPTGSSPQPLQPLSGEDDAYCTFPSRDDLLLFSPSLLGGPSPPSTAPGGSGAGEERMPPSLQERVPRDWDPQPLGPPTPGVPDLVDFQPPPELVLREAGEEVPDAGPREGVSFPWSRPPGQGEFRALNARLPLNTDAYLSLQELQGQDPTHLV

With “neoleukin-2/15 (Neo-2/15) WT (designed binder)”, the EC50 of STAT5 phosphorylation (pSTAT5) in purified splenic T cells of balb-c mice, ex vivo, serial dilutions in assay [1] turned out to be 4.1 pM. The pKd in assay [2] is 8.60.
